PMC7503845
Blank lines part the entries; values can stand above or below the molecule they belong to.

Legend:
[1] = target: full length recombinant human active CK1 epsilon (CK1ε) (human) (UniProt P49674)
[2] = target: full length recombinant human active CK1 epsilon (CK1ε) (human) (UniProt P49674); remark: listed apart in the source
[3] = target: full length recombinant human active CK1 epsilon (CK1ε) (human) (UniProt P49674); remark: listed apart in the source
[4] = target: full length recombinant human active CK1 epsilon (CK1ε) (human) (UniProt P49674); remark: listed apart in the source

Sequence of UniProt P49674 (P49674 whole entry): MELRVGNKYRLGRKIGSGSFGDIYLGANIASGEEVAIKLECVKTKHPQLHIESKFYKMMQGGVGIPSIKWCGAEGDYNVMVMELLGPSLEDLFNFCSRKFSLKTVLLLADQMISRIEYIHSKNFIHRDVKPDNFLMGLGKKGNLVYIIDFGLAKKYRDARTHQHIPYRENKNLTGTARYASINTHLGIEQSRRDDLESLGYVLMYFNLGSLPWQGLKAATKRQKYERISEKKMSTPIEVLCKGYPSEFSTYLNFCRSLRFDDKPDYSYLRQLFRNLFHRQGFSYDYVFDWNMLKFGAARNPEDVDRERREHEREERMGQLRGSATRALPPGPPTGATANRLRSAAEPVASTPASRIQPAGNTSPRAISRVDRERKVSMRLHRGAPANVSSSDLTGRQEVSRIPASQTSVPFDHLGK

Km of CK1ε for DDX3X in the kinase reaction (33P incorporation; DDX3X 0.06-1 μM, ATP fixed at 30 μM, 25 ng CK1ε, 15 min) [1]: 0.2 µM
Km^DDX3X of the kinase reaction at fixed ATP of 15, 30, 60 and 120 μM (0.6, 0.5, 0.7 and 0.7 μM) [2]: 0.7 µM
kcat / Km^DDX3X of the kinase reaction at fixed ATP of 15, 30, 60 and 120 μM (5.5, 8.4, 11.9 and 18.9 min^-1 μM^-1) [2]: 315000 M⁻¹ s⁻¹
Molecule: recombinant human DDX3X wild-type (WT) (from UniProt O00571 1-662) (enzyme)

Km^Casein of the kinase reaction at fixed ATP of 7.5, 15, 30 and 60 μM (4.6, 3.9, 4.8 and 4.0 μM) [3]: 4.8 µM
kcat / Km^Casein of the kinase reaction at fixed ATP of 7.5, 15, 30 and 60 μM (2.5, 4.1, 6.3 and 10.8 min^-1 μM^-1) [3]: 180000 M⁻¹ s⁻¹
Molecule: dephosphorylated native casein mixture (Casein)

Km^Dvl2 of the kinase reaction at fixed ATP of 7.5, 30, 60 and 120 μM (0.5, 1.1, 0.9 and 0.4 μM) [4]: 1.1 µM
kcat / Km^Dvl2 of the kinase reaction at fixed ATP of 7.5, 30, 60 and 120 μM (76.4, 98.8, 159.3 and 261.7 min^-1 μM^-1) [4]: 4.36e+06 M⁻¹ s⁻¹
B1: full length recombinant human disheveled 2 (Dvl2) (natural protein)
chain: MAGSSTGGGGVGETKVIYHLDEEETPYLVKIPVPAERITLGDFKSVLQRPAGAKYFFKSMDQDFGVVKEEISDDNARLPCFNGRVVSWLVSSDNPQPEMAPPVHEPRAELAPPAPPLPPLPPERTSGIGDSRPPSFHPNVSSSHENLEPETETESVVSLRRERPRRRDSSEHGAGGHRTGGPSRLERHLAGYESSSTLMTSELESTSLGDSDEEDTMSRFSSSTEQSSASRLLKRHRRRRKQRPPRLERTSSFSSVTDSTMSLNIITVTLNMEKYNFLGISIVGQSNERGDGGIYIGSIMKGGAVAADGRIEPGDMLLQVNDMNFENMSNDDAVRVLRDIVHKPGPIVLTVAKCWDPSPQAYFTLPRNEPIQPIDPAAWVSHSAALTGTFPAYPGSSSMSTITSGSSLPDGCEGRGLSVHTDMASVTKAMAAPESGLEVRDRMWLKITIPNAFLGSDVVDWLYHHVEGFPERREARKYASGLLKAGLIRHTVNKITFSEQCYYVFGDLSGGCESYLVNLSLNDNDGSSGASDQDTLAPLPGATPWPLLPTFSYQYPAPHPYSPQPPPYHELSSYTYGGGSASSQHSEGSRSSGSTRSDGGAGRTGRPEERAPESKSGSGSESEPSSRGGSLRRGGEASGTSDGGPPPSRGSTGGAPNLRAHPGLHPYGPPPGMALPYNPMMVVMMPPPPPPVPPAVQPPGAPPVRDLGSVPPELTASRQSFHMAMGNPSEFFVDVM
